Laboratory results published in the supplement of paper PMC7125110.
± gives the standard error. For some of these results: Variants at the floor of the assay were thinned out.

B1: glmS ribozyme (parent)
chain: AUAAAAGCGCCAGAACUACAGAAAUGUAGUUGACGAGGAGGAGGUUUAUCGAAUUUUCGGCGGAUGCCUCCAAA

Tests used:
Conditions in all cases: with glucosamine-6-phosphate
[1] = variants of: B1; test: kcat; higher = faster cleavage; RNA array
Summary of the method: (§1)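 Glucosamine-6-phosphate, from 40 μM to 10 mM in HEPES/KCl/Mg(OAc)2 buffer, was flowed over sequenced MiSeq chips carrying barcoded ribozyme variants transcribed in situ by E. coli RNA polymerase. A hybridised Cy3 probe tracked the variants at 37 °C as tiles were imaged over ~14 h. kobs, kcat and KM were obtained by fitting normalised per-tile medians to exponential decays and then applying weighted Michaelis–Menten fits across concentrations.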

[2] = variants of: B1; test: self-cleavage kobs at 40 uM GlcN6P; higher = faster cleavage; RNA array
Summary of the method: as §1

[3] = variants of: B1; test: self-cleavage kobs at 640 uM GlcN6P; higher = faster cleavage; RNA array
Summary of the method: as §1

[4] = variants of: B1; test: self-cleavage kobs at 2500 uM GlcN6P; higher = faster cleavage; RNA array
Summary of the method: as §1

[5] = variants of: B1; test: self-cleavage kobs at 10000 uM GlcN6P; higher = faster cleavage; RNA array
Summary of the method: as §1

[6] = variants of: B1; test: KM; higher = weaker cofactor use; RNA array
Summary of the method: as §1

[7] = variants of: B1; test: self-cleavage kobs at 160 uM GlcN6P; higher = faster cleavage; RNA array
Summary of the method: as §1

Row | Variant | kcat [1] [s⁻¹] | self-cleavage kobs at 40 uM GlcN6P [2] [s⁻¹] | self-cleavage kobs at 640 uM GlcN6P [3] [s⁻¹] | self-cleavage kobs at 2500 uM GlcN6P [4] [s⁻¹] | self-cleavage kobs at 10000 uM GlcN6P [5] [s⁻¹] | KM [6] [µM] | self-cleavage kobs at 160 uM GlcN6P [7] [s⁻¹]
1 | A72C | 0.00605 ± 0.0029 | 0.000372 ± 7.3e-05 | 0.00257 ± 0.00043 | 0.00362 ± 0.00077 | 0.0121 ± 0.0021 |  | 
2 | U65C C67G | 6.8e-05 ± 3.8e-06 |  | 5.5e-05 ± 1.4e-05 |  | 6.72e-05 ± 8.1e-06 |  | 
3 | A36C C58G | 2.16e-05 ± 5.9e-06 |  |  |  |  |  | 
4 | U31C A33U | 1.97e-05 ± 2.4e-06 |  |  |  | 1.73e-05 ± 6e-06 |  | 
5 | G29A A39U A42U | 0.000919 ± 0.00015 |  | 0.000148 ± 3.3e-05 | 0.000488 ± 0.00012 | 0.000685 ± 0.00014 | 3000 ± 790 | 4.77e-05 ± 2e-05
6 | U47G A64G | 0.0089 ± 0.0018 | 0.000278 ± 4.5e-05 | 0.00203 ± 0.00049 | 0.00542 ± 0.0013 | 0.00828 ± 0.0015 | 1570 ± 460 | 0.000742 ± 0.00017
7 | A12U U47G C70G | 0.000218 ± 4.7e-05 | 6.36e-05 ± 1.3e-05 | 0.000234 ± 3.9e-05 | 0.000217 ± 3.7e-05 | 0.000201 ± 3.3e-05 |  | 7.51e-05 ± 1.5e-05
8 | A42G U49G | 0.00144 ± 0.00033 | 5.36e-05 ± 2.3e-05 | 0.000275 ± 4.4e-05 | 0.000609 ± 9.7e-05 | 0.0011 ± 0.00017 | 3190 ± 1100 | 5.71e-05 ± 1.4e-05
9 | C10G C61A | 1.32e-05 ± 9.6e-07 | < 1e-05 | < 1e-05 |  | < 1e-05 | 180 ± 67 | 
10 | U31C G32U | 0.000799 ± 8e-05 |  | 0.000112 ± 9.6e-06 | 0.000281 ± 2.9e-05 | 0.000594 ± 5.8e-05 | 4030 ± 600 | 3.53e-05 ± 8.1e-06
11 | A64U C67U | 5.93e-05 ± 6.4e-06 |  |  | 5.62e-05 ± 8.7e-06 | 5.31e-05 ± 6.3e-06 |  | 
12 | A6U A39U C70U | 6.69e-05 ± 6e-06 |  | 3.98e-05 ± 1.7e-05 | 4.96e-05 ± 1.8e-05 | 6.76e-05 ± 1.9e-05 | 506 ± 210 | 
13 | C50U U54A C70U | 3.48e-05 ± 1e-05 |  | 6e-05 ± 2.4e-05 | 2.99e-05 ± 1.5e-05 |  |  | 
14 | U54G C58A | 0.000823 ± 5.9e-05 |  | 0.00015 ± 2.9e-05 | 0.000361 ± 0.00012 | 0.000646 ± 0.00011 | 2870 ± 360 | 
15 | A36U G66C | < 1e-05 | < 1e-05 |  |  |  |  | < 1e-05
16 | G44U A53G | 0.000308 ± 2.1e-05 |  |  | 0.000223 ± 6e-05 | 0.00028 ± 3.8e-05 | 997 ± 240 | 3.95e-05 ± 1.8e-05
17 | G51A U54A | < 1e-05 |  |  |  |  |  | 
18 | C8A G60A | < 1e-05 |  |  |  |  | 86.3 ± 25 | < 1e-05
19 | U49G A53C | 0.000546 ± 0.00023 |  | 7.82e-05 ± 2.4e-05 | 0.000369 ± 6.4e-05 | 0.000368 ± 8.5e-05 |  | 

Row | Variant | kcat [1] [s⁻¹] | self-cleavage kobs at 40 uM GlcN6P [2] [s⁻¹] | self-cleavage kobs at 640 uM GlcN6P [3] [s⁻¹] | self-cleavage kobs at 2500 uM GlcN6P [4] [s⁻¹] | self-cleavage kobs at 10000 uM GlcN6P [5] [s⁻¹] | KM [6] [µM] | self-cleavage kobs at 160 uM GlcN6P [7] [s⁻¹]
20 | A12C G44A A53U | 0.000479 ± 4.3e-05 |  | 5.92e-05 ± 1.6e-05 | 0.000169 ± 4.4e-05 |  | 4570 ± 530 | 
21 | G51U C71G | 1.29e-05 ± 2.7e-06 |  |  |  |  |  | 
22 | A36C U69C | 1.31e-05 ± 3.1e-06 |  |  | < 1e-05 |  |  | 
23 | C11U U47C | 8.97e-05 ± 5.3e-06 |  | 4.05e-05 ± 1.7e-05 | 5.91e-05 ± 8.5e-06 | 8.15e-05 ± 8.5e-06 | 1150 ± 290 | 
24 | A48C C68U | 8.75e-05 ± 8.5e-06 | < 1e-05 |  | 6.35e-05 ± 1.3e-05 | 7.54e-05 ± 1.1e-05 | 1310 ± 540 | 
25 | A6U C16G U55A | 1.73e-05 ± 5.1e-06 |  |  |  |  |  | 
26 | U46G U47G | 0.00226 ± 0.00039 | 6.82e-05 ± 2e-05 | 0.000551 ± 0.00016 | 0.00191 ± 0.00051 | 0.00188 ± 0.00039 | 1530 ± 410 | 0.000208 ± 5.4e-05
27 | C34A G38U | < 1e-05 |  | < 1e-05 |  |  |  | 
28 | G51C C68A | < 1e-05 | < 1e-05 |  |  |  |  | 
29 | A42U A53G | 0.000266 ± 4.7e-05 |  | 4.83e-05 ± 1.2e-05 | 0.000175 ± 2.1e-05 | 0.000206 ± 2.4e-05 | 2160 ± 870 | 
30 | C10A G51U | < 1e-05 | < 1e-05 |  |  | < 1e-05 |  | 
31 | G9U U47C | < 1e-05 |  | < 1e-05 | < 1e-05 |  |  | < 1e-05
32 | G66C C71A | 0.000163 ± 2.2e-05 |  |  | 0.000143 ± 1.5e-05 | 0.000132 ± 2.2e-05 |  | 
33 | A12U C16A | 0.00549 ± 0.00094 | 9.36e-05 ± 1.5e-05 | 0.00128 ± 0.00027 | 0.00417 ± 0.00091 | 0.00413 ± 0.00074 | 2210 ± 520 | 
34 | A52C C67U | 1.21e-05 ± 4.7e-06 |  |  |  |  |  | 
35 | G41C U47G | 0.000713 ± 0.00028 |  |  | 3.37e-05 ± 1.6e-05 | 0.000117 ± 2.8e-05 |  | 
36 | A12C G38U | < 1e-05 |  |  |  |  | 1280 ± 390 | 
37 | U45A C71G | 0.00102 ± 0.00046 | 0.000108 ± 2e-05 | 0.000442 ± 9.7e-05 | 0.00123 ± 0.00059 | 0.00177 ± 0.00039 |  | 0.00023 ± 8.2e-05
